Biological target: T1, IL-6R on KG-1, HEK293, HEK293/IL-4R and Ramos cells (Homo sapiens, UniProt P08887)
T1 construct: KG-1 (IL-4R^+), HEK293/IL-4R and Ramos (IL-6R^+) cells; endogenous in cells; host or cells: Ramos (IL-6R+), KG-1, HEK293, HEK293/IL-4R
T1 sequence (P08887 20-468): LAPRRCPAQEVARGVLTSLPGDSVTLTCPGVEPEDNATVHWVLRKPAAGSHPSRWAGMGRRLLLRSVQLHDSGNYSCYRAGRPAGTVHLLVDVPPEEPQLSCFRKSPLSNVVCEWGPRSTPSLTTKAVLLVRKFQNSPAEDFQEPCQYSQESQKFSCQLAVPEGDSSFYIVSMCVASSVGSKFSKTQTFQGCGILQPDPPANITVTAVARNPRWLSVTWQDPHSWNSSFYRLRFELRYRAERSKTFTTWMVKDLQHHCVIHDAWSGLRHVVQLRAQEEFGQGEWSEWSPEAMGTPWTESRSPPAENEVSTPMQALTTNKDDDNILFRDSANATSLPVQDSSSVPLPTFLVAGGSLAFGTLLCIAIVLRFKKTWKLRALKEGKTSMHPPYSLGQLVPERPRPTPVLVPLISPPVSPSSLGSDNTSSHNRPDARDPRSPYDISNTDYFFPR
Assay: FACS relative cell surface expression with anti-IL-6R antibody VV6A9-5
Format: binding
Description: Cell surface antigen levels on cells that endogenously or recombinantly express IL-4R or IL-6R were first established using FACS. Briefly, approximately 1 million KG-1 (IL-4R^+), HEK293/IL-4R and Ramos (IL-6R^+) cells were incubated with exemplary anti-IL-4R (H4H083P2, see U.S. Pat. No. 7,608,693) and anti-IL-6R (VV6A9-5, see U.S. Pat. No. 7,582,298) antibodies for 30 min on ice. After washing, a PE-conjugated anti-human secondary antibody (10 μg/ml) was added for 30 min followed by a second washing step and subsequent analysis on an Accuri C6 cytometer using FlowJo software (Tree Star, Inc., Ashland, Oreg.). Relative IL-4R and IL-6R cell surface expression levels were calculated as the mean fluorescence intensity (MFI) above isotype control levels.

B1: VV6A9-5: exemplary anti-IL-6R antibody, see U.S. Pat. No. 7,582,298 (antibody, V domains shown)
VH: EVQLVESGGGLVQPGRSLRLSCAASGFTFDDYALHWVRQAPGKGLEWVSGVSWNGGRIGYADSVKGRFTISRDNAKNSLFLQMNSLRVEDTALYYCAKGRDAFDIWGQGTLVTVSS
VL: DIQMTQSPSSVSASVGDRVTITCRASQGISSWLAWYQQKPGKAPKLLIYAASSLQSGVPSRFSGSGSGTDFTLTISSLQPEDFATYYCQHAYSFPYTFGQGTKLEIK
For B1, the “IL-6R Cell Line Expression Level; Fold Over Background” value (HEK293) was 1, the “IL-6R Cell Line Expression Level; Fold Over Background” value (HEK293/IL4R) was 1 and the “IL-6R Cell Line Expression Level; Fold Over Background” value (KG-1) was 7. For the same molecule, the “IL-6R Cell Line Expression Level; Fold Over Background” value (Ramos) was 1.

From patent US9688764B2, “Methods of treating breast cancer by administering anti-human prolactin receptor (PRLR) antibodies” (REGENERON PHARMACEUTICALS, INC., priority 2013, dated 2017)
